# From US20120114590A1 (priority 2005, published 2012)
# B1: Zcyto24: mouse IL-28A (zcyto24), SEQ ID NO:8 (protein, listed as Mus musculus)
# chain: MKPETAGGHMLLLLLPLLLAAVLTRTQADPVPRATRLPVEAKDCHIAQFKSLSPKELQAFKKAKDAIEKRLLEKDLRCSSHLFPRAWDLKQLQVQERPKALQAEVALTLKVWENMTDSALATILGQPLHTLSHIHSQLQTCTQLQATAEPRSPSRRLSRWLHRLQEAQSKETPGCLEASVTSNLFRLLTRDLKCVANGDQCV
# Legend:
# [1] = tested on: mouse B cells; assay: 3H-thymidine incorporation by mouse B cells; format: cell-based; settings: 72 hrs culture
# Procedure: Mouse B cells were isolated from 2 Balb/C spleens (7 months old) by depleting CD43+ cells using MACS magnetic beads. Purified B cells were cultured in vitro with LPS, anti-IgM or anti-CD40 monoclonal antibodies. Mouse IL-28 or mouse IFNα was added to the cultures and ^3H-thymidine was added at 48 hrs. and ^3H-thymidine incorporation was measured after 72 hrs. culture.
# [2] = tested on: 293 HEK cells overexpressing zcytor19; assay: Inhibition of ligand-induced ISRE-luciferase signaling by soluble receptors; format: cell-based, human; settings: 10 ng/ml ligand, 10 micrograms/ml soluble receptor, 4-hour; relative to PBS alone
# [3] = tested on: AML-12 cells; assay: ISG induction in the mouse liver cell line AML-12 (real-time PCR); format: cell-based; settings: AML-12, 20 ng/ml, 48 hour time point; mRNA relative to HPRT gene expression
# Procedure: AML-12 cells were plated in 6-well plates in complete DMEM media at a concentration of 2×10^6 cells/well. […] As a control, cells were either stimulated with mouse IFNα (positive control) or unstimulated (negative). […] RNA was isolated from cell pellets using RNAEasy-kit® (Qiagen, Valencia, Calif.). RNA was treated with DNase (Millipore, Billerica, Mass.) to clean RNA of any contaminating DNA. cDNA was generated using Perkin-Elmer RT mix. ISG gene induction was evaluated by real-time PCR using primers and probes specific for mouse OAS, Pkr and Mx1. To obtain quantitative data, HPRT real-time PCR was duplexed with ISG PCR. A standard curve was obtained using known amounts of RNA from IFN-stimulated mouse PBLs. All data are shown as expression relative to internal HPRT expression.
# [4] = tested on: ISRE signaling in HepG2 cells; settings: 100 ng/ml ligand, 4-hour incubation; RLU over medium alone
# [5] = tested on: adenoviral vector AdGFP; assay: Adenoviral vector (AdGFP) liver pathology model in C57Bl/6 mice; settings: AdGFP-infected C57Bl/6 mice, 50 μg i.p., 7 doses
molecule,measurement,setting,value
B1,3H thymidine incorporation by mouse B cells stimulated with anti-CD40 MAb,[1],increased
same,3H-thymidine incorporation by mouse B cells stimulated with LPS or anti-IgM,"[1]; IFNα at 10 ng/ml, mouse IL-28 any concentration tested including 1000 ng/ml",did not inhibit
same,Percent Inhibition of Ligand-induced ISRE Signaling by HuCRF2-4-Fc,[2],82%
same,Percent Inhibition of Ligand-induced ISRE Signaling by Huzcytor19-Fc,[2],90%
same,Percent Inhibition of Ligand-induced ISRE Signaling by Huzcytor19-Fc/huCRF2-4-Fc,[2],47%
same,Percent Inhibition of Ligand-induced ISRE Signaling by Muzcytor19-Ig,[2],89%
same,Mx1,[3],0.08
same,OAS,[3],0.04
same,PkR,[3],0.02
same,Fold Induction of Cytokine-dependent ISRE Signaling in HepG2 Cells,[4],4.7 fold
same,liver histology: liver and inflammation scores versus PBS-treated group,[5],lower liver and inflammation scores
same,average serum AST,[5]; n=8,193 U/L
same,relative liver fluorescence,[5]; n=8,34.5 arbitrary units
same,serum ALT,[5]; n=8,216 U/L
